From the nanobody polyreactivity screen of Harvey et al. (2022) come the findings set out here.

This data set is described as follows: yeast display, Sf9 membrane polyspecificity reagent, FACS + sequencing; frameworks hold sequencing errors. The method in brief:
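Synthetic nanobody libraries on Saccharomyces cerevisiae BJ5465 were galactose-induced for 36–48 hours, stained 1 hour at 4 °C with 10% biotinylated, detergent-solubilized Sf9 membrane reagent and enriched on streptavidin microbeads. FACS then separated cells into low and high (top ~1%) gates by anti-HA (expression) and streptavidin (reagent binding) fluorescence. Genes were colony-PCR amplified, MiSeq 2 × 250 sequenced and CDR-length filtered. A clone's polyreactivity label is that of its gate of origin.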
For the sequence “QVQLVESGGGLVQAGGSLRLSCAASGRIFYYNTMGWYRQAPGKESELVAAISWSGGSTFYADSVKGRFTISRDNAKNTVYLQMNSLKPEDTAVYYCARYKLRSGRSGDHDDYWGQGTQVTVSS”, the “polyreactivity (PSR sort gate)” value is “high polyreactivity”.

As for “QVQLVESGGGLVQAGGSLRLSCAASGRIFYYYAMGWYRQAPGKERELVAAISWSGGSTYYADSVKGRFTISRDNAKNTVYLQMNSLKPEDTAVYYCAAESRKYREYYFWGQGTQVTVSS”, the “polyreactivity (PSR sort gate)” value is “high polyreactivity”.

On to “QVQLVESGGGLVQAGGSLRLSCAASGRIFYYYAMGWYRQAPGKERELVAAITRRGGSTYYADSVKGRFTISRDNAKNTVYLQMNSLKPEDTAVYYCAKPDRTGWLDGDYWGQGTQVTVSS”, for which the “polyreactivity (PSR sort gate)” value is “low polyreactivity”.

Turning to “QVQLVESGGGLVQAGGSLRLSCAASGRIFYYYAMRWYRQAPGKERELVATISGIGGSTYYADSVKGRFTISRDNAKNTVYLHMNSLKPEDTAVYYCNADYPTSYPLLKSGFDYWGQGTQVTVSS”, the “polyreactivity (PSR sort gate)” value is reported as “low polyreactivity”.

For “QVQLVESGGGLVQAGGSLRLSCAASGRIFYYYDMGWYRQAPGKERELVATMSGIGGSTYYADSVKGLFTISRDHAKNTVYLQMNSLKPEDTAVYYCNADYPTSYPLFKTGFDYWGQGTQVTVSS”, the “polyreactivity (PSR sort gate)” value is on record as “low polyreactivity”.

For the sequence “QVQLVESGGGLVQAGGSLRLSCAASGRIFYYYTMGWYRQAPGKERELVAALTRSGSSTYADSVKGRFTISRDNAKNTVYLQMNSLKAEVTAVYYCAADYIRRYDYWGQGTQVTVSS”, the “polyreactivity (PSR sort gate)” value is “low polyreactivity”.

Take “QVQLVESGGGLVQAGGSLRLSCAASGRIGYNVMGWYRPAPGKERELVADISRGGGRTYYADSVKGRFTISRDNAKNTVYLQMNSLKPEDTAVYYCNAVTYYVDGGWYDYDYWGQGTQVTVSS”: the “polyreactivity (PSR sort gate)” value was “high polyreactivity”.

As to “QVQLVESGGGLVQAGGSLRLSCAASGRIGYYAMGWNRQAPGKERELVAAISYGGGSTYYADSVKGRFTISRDNAKNTVYLLMNSLKPEDTAVYYCAARWGKSWRGYGYWGQGTQVSVSS”, the “polyreactivity (PSR sort gate)” value was “high polyreactivity”.

Take “QVQLVESGGGLVQAGGSLRLSCAASGRIGYYAMGWYRQAPGKERELVAAISYGGGSTYYADSVKGRFTISRDNAKNTVYLQMNSLKPEDTAVYYCAARWGISWRGYGYWGQGTQVTVSS”: the “polyreactivity (PSR sort gate)” value was “high polyreactivity”.

For the sequence “QVQLVESGGGLVQAGGSLRLSCAASGRIIAGYAMGLYRQAPGKERELVAAISSGGSTYYADSVKGRFTISRDNAKNTVYLQMNSLKPSDTAVYYCAAGGPRVYGTKFYYCGQGTQVTVSS”, the “polyreactivity (PSR sort gate)” value was “high polyreactivity”.

Turning to “QVQLVESGGGLVQAGGSLRLSCAASGRIIDNNAMGWYRPAPGKERQLVAAISWSGTSTYYADSVKGRFTISRDHAKNTVYLQMNSLKPEDTAVYYCNADSWFYTRFDYWGQGTQVTVSS”, the “polyreactivity (PSR sort gate)” value is “high polyreactivity”.

Take “QVQLVESGGGLVQAGGSLRLSCAASGRIIGFNAMGWYIQAPAKERELVASIRTTGGSTRYADSVKWRFTISRDNATNTVYLQMNSLKPEDTAVYYCADRWCKTLWQYNYWGQGTQVTVSS”: the “polyreactivity (PSR sort gate)” value was “high polyreactivity”.

“QVQLVESGGGLVQAGGSLRLSCAASGRIIGQYAMGWYRQAPGKERELVAAITQRGGSTYYADSVKGRFTISRDNAKNTVYLLMNCLKPEDTAVYYCNKRYRFTGIRDPFDYWGQGTQVTVSS”: the “polyreactivity (PSR sort gate)” value is “low polyreactivity”.

As for “QVQLVESGGGLVQAGGSLRLSCAASGRIIGRYAMGWYRQAPGKERELVAGITIRGGSTYYADSVKGRITISRDNAKNTVYLQMNSLKPEDTAVYYCAADDKGGLAVEYDYWGQGTQVTVSS”, the “polyreactivity (PSR sort gate)” value is “low polyreactivity”.

With “QVQLVESGGGLVQAGGSLRLSCAASGRIIGSNTMGWYRQAPGKEREFVATISSSGGSTYYADSVKGRFTISRDNAKNTVYLQMNSLKPEDTAVYYCNTRRRYPFRPYPEWRNYYWGHGTQVTVSS”, the “polyreactivity (PSR sort gate)” value was “high polyreactivity”.

Consider “QVQLVESGGGLVQAGGSLRLSCAASGRIIKFYAMGWYRQAPGKERELVAVIRSGTRTKYADSVKGRFTISRDNAKNTVYLQMNSLKPVDTAVYYCIRYFSEALLHGSSYNRYYYWGQGTQVTVSS”, for which the “polyreactivity (PSR sort gate)” value is recorded as “low polyreactivity”.

Turning to “QVQLVESGGGLVQAGGSLRLSCAASGRIIQRYAMGWYRQAPGKERELVATITFNTASTYYADSVKGRFTISRDNAQNTVYLQMNSLKPEDTAVYYCAAKHRGGYGYWGQGTQVTVSS”, the “polyreactivity (PSR sort gate)” value is on record as “high polyreactivity”.

“QVQLVESGGGLVQAGGSLRLSCAASGRIIRYYAMGWYRQAPGKERELVAAISKSGGSTYYADSVKGRFTISRDNAKNTVYLQMNSMKREDTAVFFCAAGTSRYVYHSYGKYEYWGQGTQVTVSS”: the “polyreactivity (PSR sort gate)” value is listed as “high polyreactivity”.

With “QVQLVESGGGLVQAGGSLRLSCAASGRIIRYYAMGWYRQAPGKERELVATISRSGGSTFYADSVKGRFTISRDNAKNTVYLQMNSLKPEDTAVYYCNARYQTGGYGYWGQGTQVTVSS”, the “polyreactivity (PSR sort gate)” value is given as “high polyreactivity”.

“QVQLVESGGGLVQAGGSLRLSCAASGRIIRYYAMGWYRQAPGKETELVAITSSGGRTYYADSVKGRFTISRDNAKNTVYLQMNSLKPEDTAVYYCAVDAHWPGRGERFIRLDYWGQGTQVSVSS”: the “polyreactivity (PSR sort gate)” value is listed as “low polyreactivity”.

For the sequence “QVQLVESGGGLVQAGGSLRLSCAASGRIISRYAMGWYRQAPGKERELVATITWSTTSTYYADSVKGRFTISRDNAKNTVYLQMNSLKPEDTAVYYCAASIIPGFRRDPFGYWGQGTQVTVSS”, the “polyreactivity (PSR sort gate)” value is reported as “low polyreactivity”.

Turning to “QVQLVESGGGLVQAGGSLRLSCAASGRIITKYTMGWYRQAPGKVRELVAAISRSDRTNYADSVKGRFTISRDNAKNTVYLQMNSLKPEDTAVYYCNARHSYWTGRRVTDDYDYRGQGTQVTVSS”, the “polyreactivity (PSR sort gate)” value is listed as “high polyreactivity”.

Turning to “QVQLVESGGGLVQAGGSLRLSCAASGRIITTYAMGWYRQAPGKERELVAAISRSSGSTYYADSVKGRFTISRDNAKNTVYLQMNSLKPEDTAVYYCNAYQRKSGRYDYWGQGTQVTVSS”, the “polyreactivity (PSR sort gate)” value is “high polyreactivity”.

On to “QVQLVESGGGLVQAGGSLRLSCAASGRIITWYAMGCYRQAPGKERELVAAISWSGGSTYYADSVTGRFTISRDNAKNTVYLQMNSLKPEDTAVYYCNKVTVTGLYDYWGQGTQVTVSS”, for which the “polyreactivity (PSR sort gate)” value is recorded as “high polyreactivity”.

Consider “QVQLVESGGGLVQAGGSLRLSCAASGRIIVKYAMRSYRQAPGKERELVAAITNSGGRTYYAACVKGRFTISRDNAKNTVYFQMNSLKPEDTAVYYCAALFHASTRQMDYWGQGTQVTVSS”, for which the “polyreactivity (PSR sort gate)” value is given as “high polyreactivity”.

As for “QVQLVESGGGLVQAGGSLRLSCAASGRIIVLYAMGWYRQAPGKERELVASIRSGGSTNYADSVKGRFTISRDNAKNTVYLQMNSLKPEDTAVYYCAARIRSVVPFDMDYWGQGTQVTVSS”, the “polyreactivity (PSR sort gate)” value was “low polyreactivity”.

Consider “QVQLVESGGGLVQAGGSLRLSCAASGRIIVLYAMGWYRQAPGKERELVASIRSGGSTNYADSVKGRFTISRDNAKNTVYLQMNSLKPEDTAVYYCAARPDHKRYDYWGQGTQVTVSS”, for which the “polyreactivity (PSR sort gate)” value is recorded as “low polyreactivity”.

Regarding “QVQLVESGGGLVQAGGSLRLSCAASGRIIVPYVMGWYRLAPGKERELVAAISTSGTSTYYADSVKGRFTISRDNAKNTVYLQMNSLKPEDTAVYYCAKRSGARHRLMDYWGQGTQVTVSS”, the “polyreactivity (PSR sort gate)” value is listed as “low polyreactivity”.

For “QVQLVESGGGLVQAGGSLRLSCAASGRIIYTNALGWYRQAPGKERELVAAINRSGGITYYADSVKGRFTISRDNAKNTVYLQMNSLKPEDTAVYYCAKDYSWASYNHDYWGQGTQVTVSS”, the “polyreactivity (PSR sort gate)” value is given as “low polyreactivity”.

As for “QVQLVESGGGLVQAGGSLRLSCAASGRILAGYAMGWYRQAPGKERELVAAITRGGTTYYADSVKGRFTISRDNAKYTVYLQMNSLKPEDTAVVYTVSSAQYDYWGQGTQVTVSS”, the “polyreactivity (PSR sort gate)” value is given as “low polyreactivity”.

As for “QVQLVESGGGLVQAGGSLRLSCAASGRILAGYTMGWYRQAPGKERELVAAISDRGGSTYYADSVKGRFTISRDNAKNTVYLQMNSLKPEDTAVYYCNAVVYSYALTPSYAGDYWGQGTQVTVSS”, the “polyreactivity (PSR sort gate)” value is “low polyreactivity”.

“QVQLVESGGGLVQAGGSLRLSCAASGRILAPYAMGWYRQAPGKERELVAAISASGGTTYYADSVKGRFTISRDNAKNTVYLQMNSLKPEDTAVYYCNARWSPGNLRYGREGDYWGQGTQVTVSS”: the “polyreactivity (PSR sort gate)” value is “high polyreactivity”.

As for “QVQLVESGGGLVQAGGSLRLSCAASGRILAYYAMGWYRQAPGKERELVDAINRSGVRTYYADSVKGRFTISRDYAKNTVYLQMNSLKPEDTAVYYCAAPGQHSWGQGTQVTVSS”, the “polyreactivity (PSR sort gate)” value is “high polyreactivity”.

Take “QVQLVESGGGLVQAGGSLRLSCAASGRILDANDMGWYRQAPGKERELVAGINSGGSTYYADSVKGRFTISRDNAKNTVYLQMNSLKPEDTAVYYCAAGGVSAKYDYWGQGTQVTVSS”: the “polyreactivity (PSR sort gate)” value is “low polyreactivity”.

With “QVQLVESGGGLVQAGGSLRLSCAASGRILDINTMGWYRHPPGKERELVAAITWSGVSTYYADSVKGRFTISRDNAKNTVYLQMNSLKPEDTAVYYCAARPYYTWRYLPTKSGDYWGQGTQVTVSS”, the “polyreactivity (PSR sort gate)” value is recorded as “low polyreactivity”.

In the case of “QVQLVESGGGLVQAGGSLRLSCAASGRILDYNAMGWYIQAPGKERELVAAITLNGGGTYYADSVKGRFTISRDNAKNSVYLQMNSLKPEDTAVYYCNADYRRYPEFDYWGQGTHVTVSS”, the “polyreactivity (PSR sort gate)” value is listed as “high polyreactivity”.

On to “QVQLVESGGGLVQAGGSLRLSCAASGRILDYNAMGWYRQAPGKERELVADISGSGDSTYYADSVKGRFTISRDNAKNTVYLQMNSLKPEDTAVYYCNRQTVRPHSRAGYDYWGQGTQVTVSS”, for which the “polyreactivity (PSR sort gate)” value is “low polyreactivity”.

As to “QVQLVESGGGLVQAGGSLRLSCAASGRILELNAMGWYRQAPGKERELVAGISNSGDTTYYADSVKGRFTISRDNAKNTVYLQMNSLKPEDTAVYYCNADGVVTWYDYWGQGTQVTVSS”, the “polyreactivity (PSR sort gate)” value is reported as “low polyreactivity”.

With “QVQLVESGGGLVQAGGSLRLSCAASGRILEYNAMGWYRQAPGKERELVAAITSDGSTNYADSVKGRFTISRDNAKNTVYLQMNSLKPEDTAVYYCNTRYSLYTKYAYYDELDYWGQGTQVTLSS”, the “polyreactivity (PSR sort gate)” value was “low polyreactivity”.

In the case of “QVQLVESGGGLVQAGGSLRLSCAASGRILGGNTMGWYRQAPGKERELVAGISYSGGRTYYADSVKGRFTISRDNAKHTVYLQMNSLKPEDTAVYYCAAEYDWYSYQLDYWGQGTQVTVSS”, the “polyreactivity (PSR sort gate)” value was “high polyreactivity”.

With “QVQLVESGGGLVQAGGSLRLSCAASGRILGNNVMGWYRQAPGKERELVAAITSSGGRTYYADSVKGRFTISRDNAKNTVYLQMNSLKPVDTAVYYCAAERRYYGKFNYWGQGTQVTVSS”, the “polyreactivity (PSR sort gate)” value was “high polyreactivity”.
